Assay results from publication PMC12292289, “Identification of a Novel Antibacterial Function of Mammalian Calreticulin” (Biomolecules, 2025).

Key:
[1] = target: recombinant goat calreticulin (Capra hircus (goat)); experiment: SEC; SEC-HPLC of the purified recombinant protein; retention time compared with that of standards (Figure S1)
[2] = target: the molecule itself; experiment: as above

stoichiometry N [1] | Molecule | stoichiometry N [2]
2 | recombinant goat calreticulin (natural protein) | 
 | recombinant human calreticulin (natural protein, UniProt P27797 18-417, looked up, calreticulin, human; bought recombinant protein (Sino Biological, P27797); P27797 is printed where the reagent list gives catalogue numbers; also called recombinant human calreticulin expressed in HEK293 cells; source: bought: Sino Biological; expressed in HEK293 cells) EPAVYFKEQFLDGDGWTSRWIESKHKSDFGKFVLSSGKFYGDEEKDKGLQTSQDARFYALSASFEPFSNKGQTLVVQFTVKHEQNIDCGGGYVKLFPNSLDQTDMHGDSEYNIMFGPDICGPGTKKVHVIFNYKGKNVLINKDIRCKDDEFTHLYTLIVRPDNTYEVKIDNSQVESGSLEDDWDFLPPKKIKDPDASKPEDWDERAKIDDPTDSKPEDWDKPEHIPDPDAKKPEDWDEEMDGEWEPPVIQNPEYKGEWKPRQIDNPDYKGTWIHPEIDNPEYSPDPSIYAYDNFGVLGLDLWQVKSGTIFDNFLITNDEAYAEEFGNETWGVTKAAEKQMKDKQDEEQRLKEEEEDKKRKEEEEAEDKEDDEDKDEDEEDEEDKEEDEEEDVPGQAKDEL | 2
